According to IntAct's records for PubMed 19264842:

B1: 1-phosphatidylinositol 4,5-bisphosphate phosphodiesterase gamma-1 (Homo sapiens), P19174 (parent)
chain: MAGAASPCANGCGPGAPSDAEVLHLCRSLEVGTVMTLFYSKKSQRPERKTFQVKLETRQITWSRGADKIEGAIDIREIKEIRPGKTSRDFDRYQEDPAFRPDQSHCFVILYGMEFRLKTLSLQATSEDEVNMWIKGLTWLMEDTLQAPTPLQIERWLRKQFYSVDRNREDRISAKDLKNMLSQVNYRVPNMRFLRERLTDLEQRSGDITYGQFAQLYRSLMYSAQKTMDLPFLEASTLRAGERPELCRVSLPEFQQFLLDYQGELWAVDRLQVQEFMLSFLRDPLREIEEPYFFLDEFVTFLFSKENSVWNSQLDAVCPDTMNNPLSHYWISSSHNTYLTGDQFSSESSLEAYARCLRMGCRCIELDCWDGPDGMPVIYHGHTLTTKIKFSDVLHTIKEHAFVASEYPVILSIEDHCSIAQQRNMAQYFKKVLGDTLLTKPVEISADGLPSPNQLKRKILIKHKKLAEGSAYEEVPTSMMYSENDISNSIKNGILYLEDPVNHEWYPHYFVLTSSKIYYSEETSSDQGNEDEEEPKEVSSSTELHSNEKWFHGKLGAGRDGRHIAERLLTEYCIETGAPDGSFLVRESETFVGDYTLSFWRNGKVQHCRIHSRQDAGTPKFFLTDNLVFDSLYDLITHYQQVPLRCNEFEMRLSEPVPQTNAHESKEWYHASLTRAQAEHMLMRVPRDGAFLVRKRNEPNSYAISFRAEGKIKHCRVQQEGQTVMLGNSEFDSLVDLISYYEKHPLYRKMKLRYPINEEALEKIGTAEPDYGALYEGRNPGFYVEANPMPTFKCAVKALFDYKAQREDELTFIKSAIIQNVEKQEGGWWRGDYGGKKQLWFPSNYVEEMVNPVALEPEREHLDENSPLGDLLRGVLDVPACQIAIRPEGKNNRLFVFSISMASVAHWSLDVAADSQEELQDWVKKIREVAQTADARLTEGKIMERRKKIALELSELVVYCRPVPFDEEKIGTERACYRDMSSFPETKAEKYVNKAKGKKFLQYNRLQLSRIYPKGQRLDSSNYDPLPMWICGSQLVALNFQTPDKPMQMNQALFMTGRHCGYVLQPSTMRDEAFDPFDKSSLRGLEPCAISIEVLGARHLPKNGRGIVCPFVEIEVAGAEYDSTKQKTEFVVDNGLNPVWPAKPFHFQISNPEFAFLRFVVYEEDMFSDQNFLAQATFPVKGLKTGYRAVPLKNNYSEDLELASLLIKIDIFPAKENGDLSPFSGTSLRERGSDASGQLFHGRAREGSFESRYQQPFEDFRISQEHLADHFDSRERRAPRRTRVNGDNRL

Variants of: B1
Details: with rac1_human RAC1, P63000

Variant	effect of a mutation on the interaction
P842L	disrupting interaction
